The record followed here is US20080311122A1 (AstraZeneca / MedImmune, published 2008).

T1: HMG1 B Box peptide amino acids 150-183
T1 peptide: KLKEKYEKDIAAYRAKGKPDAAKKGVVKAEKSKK

T2: HMG2 (UniProt P40673 2-209, limits assumed)
T2 construct: also called HMGB2; HMBG2
T2 sequence (looked up): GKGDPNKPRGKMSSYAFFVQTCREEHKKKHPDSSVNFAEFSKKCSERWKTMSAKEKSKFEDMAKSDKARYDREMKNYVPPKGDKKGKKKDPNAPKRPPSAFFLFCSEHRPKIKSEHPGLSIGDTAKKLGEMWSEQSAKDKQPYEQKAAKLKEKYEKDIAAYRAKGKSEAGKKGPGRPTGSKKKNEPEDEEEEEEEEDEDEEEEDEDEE

T3: recombinant HMG1 purified from E. coli as a calmodulin binding protein (CBP) fusion protein (human, UniProt A9RA84 1-215 (Papio anubis entry))
T3 sequence: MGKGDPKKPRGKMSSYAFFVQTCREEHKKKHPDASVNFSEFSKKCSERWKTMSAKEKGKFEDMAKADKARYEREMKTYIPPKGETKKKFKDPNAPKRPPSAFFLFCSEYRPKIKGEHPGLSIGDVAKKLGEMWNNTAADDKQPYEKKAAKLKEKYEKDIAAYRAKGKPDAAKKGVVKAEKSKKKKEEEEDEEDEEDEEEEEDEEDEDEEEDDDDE

T4: HMG1 purified from bovine (calf) thymus (bovine, UniProt P10103 2-215)
T4 construct: also called Calf thymus HMGB1; thymus HMG1
T4 sequence (looked up): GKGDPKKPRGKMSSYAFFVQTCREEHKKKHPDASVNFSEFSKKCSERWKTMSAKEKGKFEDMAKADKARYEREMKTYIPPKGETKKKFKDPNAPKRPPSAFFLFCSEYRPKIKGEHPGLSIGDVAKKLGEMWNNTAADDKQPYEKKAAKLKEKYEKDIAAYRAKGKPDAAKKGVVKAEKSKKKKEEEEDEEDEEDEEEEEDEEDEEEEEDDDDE

T5: HMG1 B Box peptide amino acids 91-169
T5 construct: also called HMG1 peptide 91-169
T5 peptide: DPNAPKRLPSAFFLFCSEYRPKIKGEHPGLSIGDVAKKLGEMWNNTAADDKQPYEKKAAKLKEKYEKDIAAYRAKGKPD

B1: anti-HMG1 antibody S14 (antibody, V domains shown)
VH: EVQLLESGGGLVQPGGSLRLSCAASGFTFSWYETGWVRQAPGKGLEWVSGISPSGGYTQYADSVKGRFTISRDNSKNTLYLQMNSLRAEDTAVYYCARSGVGATKIFDYWGQGTLVTVSS
VL: DIQMTQSPSSLSASVGDRVTIICRANERINTYLNWYQQKPGKAPKLLISGTSSLESGVPSRFSGSGSGTEFTLSISSLQPEDFASYYCQQSYSSPYTFGQGTNLEIR
B2: anti-HMG1 antibody G35 (antibody, V domains shown)
VH: EVQLLESGGGLVQPGGSLRLSCAASGFTFSWYKMVWVRQAPGKGLEWVSSIVPSGGITIYADSVKGRFTISRDNSKNTLYLQMNSLRAEDTAVYYCARVQQWLGRPYFDYWGQGTLVTVSS
VL: DIQMTQSPLSLPVTPGEPASISCRSSQSLLHGNGYNYLDWYLQRPGQSPQLLIYSGSNRASGVPDRFSGSGSGTDFTLKISRVEAEDVGVYYCMQSLQSRTFGQGTKVEIK
B3: anti-HMG1 antibody G9 (antibody, V domains shown)
VH: EVQLLESGGGLVQPGGSLRLSCAASGFTFSSYDMFWVRQAPGKGLEWVSRISPSGGYTYYADSVKGRFTISRDNSKNTLYLQMNSLRAEDTAVYYCARLRYFDSRGYAFDIWGQGTMVTVSS
VL: DIQMTQSPGTLSLSPGERATLSCRASQSVRSSYLAWYQQKPGQAPRLLIYGASTRATGIPDRFSGSGSGTDFTLTISRLEPEDFAVYYCQQYGTSRWTFGQGTKVEIK
B4: anti-HMG1 antibody G34 (antibody, V domains shown)
VH: EVQLLESGGGLVQPGGSLRLSCAASGFTFSHYMMGWVRQAPGKGLEWVSRISPSGGGTVYADSVKGRFTISRDNSKNTLYLQMNSLRAEDTAVYYCARGGNWNYISYYYYYLDVWGKGTTVTVSS
VL: DIQMTQSPSSLSASVGDRVAITCRASQSIDTYLNWYQQKPGKAPKLLIYAASKLEDGVPSRFSGSGTGTDFTLTIRSLQPEDFASYFCQQSYSSPGITFGPGTKVEIK
B5: anti-HMG1 antibody G12 (antibody, V domains shown)
VH: EVQLLESGGGLVQPGGSLRLSCAASGFTFSYYMMTWVRQAPGKGLEWVSSISPSGGYTIYADSAKGRFTISRDNSKNTLYLQMNSLRAEDTAVYYCARALSTGSFWDYWGQGTLVTVSS
VL: DIQMTQSPGTLSLSPGERATLSCRASESLTSTYVAWYQHKPGQAPRLLIHGGSTRATGIPVRFSGSGSGTDFTLTIATLEPEDFAVYYCQQYGSSPYTFGQGTKLEIK
B6: anti-HMG1 antibody G20 (antibody, V domains shown)
VH: EVQLLESGGGLVQPGGSLRLSCAASGFTFSWYDMFWVRQAPGKGLEWVSWISPSGGYTKYADSVKGRFTISRDNSKNTLYLQMNSLRAEDTAMYYCARSGLDYYDSSGYLDAFDIWGQGTMVTVSS
VL: DIQMTQSPSSVSASVGDRVTITCRASQDVSIWLAWYQQKPGKAPKLLIFGASRLQSGVPSRFSGSRSGADFTLTIDSVQPEDFASYYCQQADSFPLTFGGGTKVEIK

The first assay deals with T1, HMG1 B Box peptide amino acids 150-183. The experiment in a line: ELISA, wells coated with HMG1 B Box peptide 150-183 at 10 ug/ml. The method, then:
(§1) The plate was then blocked with 4% milk powder dissolved in PBS at 37° C. for 1 hour. The blocking solution was removed and replaced with human anti-HMG1 antibodies at various concentrations (see FIGS. 5A-B). […] HRP activity was detected with Sureblue HRP substrate (KPL). Plates were read at 450 nm using a Kinetic Microplate Reader (Molecular Devices). […] After washing and blocking with 1% BSA in PBS, the biotinylated peptides were individually added into the avidin coated wells and incubated for 30 min at room temperature. The serial diluted antibody G4, S16 and S6 at the initial concentration at 10 μg/ml were then transferred into the wells followed by adding mouse anti human IgG-HRP conjugate (Pierce). Detection was accomplished by adding 50 μl of tetramethylbenzidine (TMB) substrate (KPL) and the absorbance was read at […].
(In general: In an ELISA, binding on a coated surface is turned into a signal by an enzyme label.)
In the case of B1, the binding result is on record as “no binding (tested: 10 ug/ml (log 1.00))”.

Take B2: the binding result is “no binding (tested: 10 ug/ml (log 1.00))”.

In the case of B3, the binding result is “no binding (tested: 10 ug/ml (log 1.00))”.

B4: the binding result is “no binding (tested: 10 ug/ml (log 1.00))”.

B5: the binding result was “no binding (tested: 10 ug/ml (log 1.00))”.

A further assay addresses T2, HMG2. Briefly: ELISA, wells coated with HMGB2 at 5 ug/mL, OD 490. The method, then:
(§2) Binding to HMG1 vs. HMG2: Ultra high-binding ELISA plates (ThermoLab systems, #3855) were coated with either 5 ug/mL of Calf thymus HMGB1 or HMBG2 diluted in 10 mM Phosphate buffered saline (PBS), pH 7.2 and incubate overnight at 4 degrees. The plates were washed twice with Ca and Mg free PBS and 100 microliters of anti-HMGB1 antibody diluted in 10 mM PBS, pH 7.2+1% bovine serum albumin (BSA) to a final concentration of 10 ug/mL was added to each well and the plates were incubated 1 hour at room temperature. The wells were washed three times with 100 μl of PBS, pH 7.2. HRP labeled goat-anti-human IgG Kappa-chain (KPL, #14-10-10) and goat-anti-human IgG Lambda-chain (KPL, #14-10-11) were diluted in 10 mM PBS+1% BSA 1:1000 and 100 μl were added to each well and incubated for 1 hour at room temperature. The wells were then washed three times with 100 μl of PBS, pH 7.2. OPD substrate (Pierce chemical company, #34006) was prepared following the manufacturers instructions and 100 μl of prepared substrate was added to each well and the plates incubated at room temperature in the dark for 20-30 minutes. The reaction was stopped with the addition of 100 μl of 2M H₂SO₄, and the plates read on a plate reader at a wavelength of 490 nm.
In the case of B1, the binding result is “no binding (tested: 10 ug/mL (not on the sheet))”.

In the case of B2, the binding result was “no binding (tested: 10 ug/mL (not on the sheet))”.

In the case of B6, the binding result is “no binding (tested: 10 ug/mL (not on the sheet))”.

Consider B3, for which the binding result is reported as “no binding (tested: 10 ug/mL (not on the sheet))”.

With B4, the binding result is reported as “no binding (tested: 10 ug/mL (not on the sheet))”.

As to B5, the binding result was “no binding (tested: 10 ug/mL (not on the sheet))”.

For a further assay, the target named is T3, recombinant HMG1 purified from E. coli …. Briefly: cell-based or functional assay.
For the molecule B1, the “IC50, inhibition of rHMG1 stimulated IL-1β release from human PBMC” value is 0.0678 µg/mL; the “IC50, inhibition of rHMG1 stimulated IL-6 release from human PBMC” value is 0.191 nM; the “IC50, inhibition of rHMG1 stimulated TNF-α release from human PBMC” value was 0.0662 µg/mL.

In the case of B2, the “IC50, inhibition of rHMG1 stimulated IL-6 release from human PBMC” value amounted to 0.564 nM.

Consider B6, for which the “IC50, inhibition of HMG1 stimulated NO release from macrophages” value came out at 20.4 µg/mL; the “IC50, inhibition of rHMG1 stimulated IL-1β release from human PBMC” value is 0.4 µg/mL; the “IC50, inhibition of rHMG1 stimulated IL-6 release from human PBMC” value was 0.652 nM; the “IC50, inhibition of rHMG1 stimulated TNF-α release from human PBMC” value was 0.598 µg/mL.

With B3, the “IC50, inhibition of rHMG1 stimulated IL-1β release from human PBMC” value was 0.211 µg/mL; the “IC50, inhibition of rHMG1 stimulated IL-6 release from human PBMC” value was found to be 0.246 nM; the “IC50, inhibition of rHMG1 stimulated TNF-α release from human PBMC” value was found to be 0.248 µg/mL.

As for B4, the “IC50, inhibition of rHMG1 stimulated IL-6 release from human PBMC” value amounted to 0.858 nM.

For B5, the “IC50, inhibition of rHMG1 stimulated IL-1β release from human PBMC” value was 5.91 µg/mL; the “IC50, inhibition of rHMG1 stimulated IL-6 release from human PBMC” value worked out at 1.12 nM; the “IC50, inhibition of rHMG1 stimulated IL-12 release from human PBMC” value was found to be 2.79 µg/mL; the “IC50, inhibition of rHMG1 stimulated TNF-α release from human PBMC” value was found to be 0.796 µg/mL.

A further assay addresses T4, HMG1 purified from bovine (calf) thymus. Briefly: ELISA, wells coated with calf thymus HMGB1 at 5 ug/mL, antibody at 10 ug/mL, anti-human kappa/lambda-HRP, OD 490. The method, then:
as §2
Take B1: the binding result is listed as “binds”.

Regarding B2, the binding result was “binds”.

In the case of B6, the binding result was “binds”.

Take B3: the binding result is given as “binds”.

On to B4, for which the binding result is “binds”.

Take B5: the binding result was “binds”.

Another assay concerns the target T5, HMG1 B Box peptide amino acids 91-169. The experiment in a line: ELISA, wells coated with HMG1 B Box peptide 91-169 at 10 ug/ml. The method, then: as §1
Take B1: the binding result was “no binding (tested: 10 ug/ml (log 1.00))”.

As for B6, the binding result is reported as “no binding (tested: 10 ug/ml (log 1.00))”.

Turning to B3, the binding result is “no binding (tested: 10 ug/ml (log 1.00))”.

B4: the binding result is “no binding (tested: 10 ug/ml (log 1.00))”.

On to B5, for which the binding result was “no binding (tested: 10 ug/ml (log 1.00))”.

A further assay has as its target T3, recombinant HMG1 purified from E. coli …. The experiment in a line: BIAcore, mAb immobilized, HMG1 injected, steady-state model. The method, then: HMG1 Binding Affinity via BIAcore Analysis: All experiments were performed on a BIAcore 3000 instrument (BIAcore, Inc., Piscataway, N.J.). Briefly, each mAb was immobilized to a CM5 sensor chip using a standard amino coupling chemistry. Separately a reference (control) flow cell was also prepared. Two-fold, serial dilutions of HMG1 in instrument buffer were sequentially injected at a slow flow rate over the individual mAb and reference flow-cell surfaces. Following the binding and dissociation of HMG1, the mAbs surfaces were regenerated with a brief pulse of 1M NaCl-50 mM NaOH. At the end of each experiment, the binding curves were evaluated using a steady-state model available through the BIA evaluation software supplied by BIAcore, Inc. (Piscataway, N.J.).
(In general: In SPR one partner is held on a chip, and binding of the other changes the refractive index at the surface.)
The Kd is the equilibrium constant for the complex coming apart. For B1, the dissociation constant (Kd) stood at 205 nM.

As for B2, the Kd was determined as 242 nM.

In the case of B3, the Kd was determined as 125 nM.

As to B4, the Kd amounted to 67 nM.

Take B5: the Kd amounted to 73 nM.
